# Test results taken from patent publication US20200261603A1 (Astellas, published 2020).
# B1: P10-2 Fab (Fab, V domains shown)
# VH: QVQLVQSGAEVKKPGASVKVSCKASGYTFTNYGLSWVRQAPGQGLEWMGENHPGSGIIYHNEKFRGRVTLTADRSTSTAYMELSSLRSEDTAVYYCARSSGTRGFDYWGQGTLVTVSS
# VL: DVVMTQTPLSLSVTPGQPASISCRSSQSIVHSNGNTYLEWYLQKPGQSPQLLIYRVSNRFSGVPDRFSGSGSGTDFTLKISRVEAEDVGVYYCFQGSHGPWTFGQGTKLEIKR
# modifications: heavy chain N-terminal glutamine was modified into pyroglutamic acid in a great majority of purified antibodies
# notes: expressed in Expi293F cells; also called anti-human MUC1 antibody Fab fragment P10-2
# B2: mouse chimeric P10-2 IgG (antibody, V domains shown)
# VH: QVQLVQSGAEVKKPGASVKVSCKASGYTFTNYGLSWVRQAPGQGLEWMGENHPGSGIIYHNEKFRGRVTLTADRSTSTAYMELSSLRSEDTAVYYCARSSGTRGFDYWGQGTLVTVSS
# VL: DVVMTQTPLSLSVTPGQPASISCRSSQSIVHSNGNTYLEWYLQKPGQSPQLLIYRVSNRFSGVPDRFSGSGSGTDFTLKISRVEAEDVGVYYCFQGSHGPWTFGQGTKLEIKR
# notes: Antibody in which the VH and VL domains of P10-2 Fab were fused with mouse IgG2a CH1 to CH3 domains and a mouse κ chain CL domain; not shown: mouse IgG2a CH1 to CH3 domains; mouse κ chain CL domain
# B3: P10-1 Fab Dye (Fab, V domains shown)
# VH: QVQLVQSGAEVKKPGASVKVSCKASGYTFTNYGLSWVRQAPGQGLEWMGENHPGSGIIYHNEKFRGRVTLTADRSTSTAYMELSSLRSEDTAVYYCARSSGTRGFAYWGQGTLVTVSS
# VL: DVVMTQTPLSLSVTPGQPASISCRSSQSIVHSNGNTYLEWYLQKPGQSPQLLIYRVSNRFSGVPDRFSGSGSGTDFTLKISRVEAEDVGVYYCFQGSHGPWTFGQGTKLEIKR
# modifications: IRDye800CW (NHS ester) on Lys of the Fab fragment; number and positions not stated
# notes: also called IRDye800CW-labeled P10-1 Fab
# B4: P10-1 Fab (Fab, V domains shown)
# VH: QVQLVQSGAEVKKPGASVKVSCKASGYTFTNYGLSWVRQAPGQGLEWMGENHPGSGIIYHNEKFRGRVTLTADRSTSTAYMELSSLRSEDTAVYYCARSSGTRGFAYWGQGTLVTVSS
# VL: DVVMTQTPLSLSVTPGQPASISCRSSQSIVHSNGNTYLEWYLQKPGQSPQLLIYRVSNRFSGVPDRFSGSGSGTDFTLKISRVEAEDVGVYYCFQGSHGPWTFGQGTKLEIKR
# notes: expressed in Expi293F cells; also called anti-human MUC1 antibody Fab fragment P10-1
# How the values were obtained:
# [1] = biological target: T1, human cancer-specific MUC1 (human, UniProt P15941 24-1255, cancer-specific incomplete O-glycosylation (T, Tn, 2,3ST) of threonine at position 9 of the 20-amino acid tandem repeat … (SEQ ID NO: 15), as the background describes it); test: Cell ELISA on formalin-fixed T-47D cells, HRP anti-human Igκ, luminescence
# T1 construct: whole, on cells; also called Mucin 1; human MUC1
# [2] = biological target: T1, human cancer-specific MUC1; test: immunostaining of a human bladder cancer tissue array, 0.25 µg/mL primary antibody, Polymer-HRP/DAB
Binder,fold binding activity compared to 1B2 Fab [1],also measured
B1,≥ 10 times (vs 1B2 Fab),
B2,,binding result [2]: binds
B3,,binding result [1]: binds
B4,≥ 10 times (vs 1B2 Fab),
